Molecular target: soluble recombinant NadA_(Δ351-405) (rNadA), Neisseria meningitidis adhesin A lacking the membrane anchor region (Neisseria meningitidis) (UniProt Q8KH85)
Assay: SEC-MALS; rNadA 1,7 mg/ml in 10 mM NaH2PO4 150 mM NaCl pH 7.2, heated at 37°C for 30 min, 1, 2 and 4 hrs; TSK Super SW3000, eluted in 0.1 M NaH2PO4, 0,1 M NaHSO4 pH 7.0; MALLS detector Dawn TREOS

Question: What does the source list for “soluble recombinant NadA_(Δ351-405) (rNadA), Neisseria meningitidis adhesin A lacking the membrane anchor region (from UniProt Q8KH85 1-350) (domain or fragment)”?
Answer: percent of the preparation present as the native trimer: 95%; stoichiometry N: 3
